Experimental data as given in patent US20070054344.

How the values were obtained:
[1] = test system: T1, N-terminal-valine fructosylated peptide having an amino acid sequence represented by SEQ ID NO: 2
T1 sequence: VHL

f-VHLTPE = test system: T2, f-VHLTPE
T2 sequence: VHLTPE

f-VHLTP = test system: T3, f-VHLTP
T3 sequence: VHLTP

f-VHLT = test system: T4, f-VHLT
T4 sequence: VHLT

[2] = test system: T5, fructosyl valyl histidine
T5 sequence: VH

defructosylation enzyme originating from a plant belonging to the family Zingiberaceae (Zingiber officinale rhizome)
Absorbance at 700 nm (mAbs), colour development of DA-64 (hydrogen peroxide produced) [1]: 570 mAbs | capillary electrophoresis peak area after 16 hours of reaction at 37° C. (defructosylation) [1]: the peak attributed to f-VHL does not exist and the peak attributed to VHL is increased (area: 32 mABU×sec) | enzyme activity with the peptide as a substrate [1]: the enzyme is effective on fructosyl valine and at least fructosyl peptides having amino acid sequences represented by SEQ ID NOs: 1 to 5 | Absorbance at 700 nm (mAbs), colour development of DA-64 (hydrogen peroxide produced) (f-VHLTPE): 223 mAbs | enzyme activity with the peptide as a substrate (f-VHLTPE): the enzyme is effective on fructosyl valine and at least fructosyl peptides having amino acid sequences represented by SEQ ID NOs: 1 to 5 | Absorbance at 700 nm (mAbs), colour development of DA-64 (hydrogen peroxide produced) (f-VHLTP): 198 mAbs | enzyme activity with the peptide as a substrate (f-VHLTP): the enzyme is effective on fructosyl valine and at least fructosyl peptides having amino acid sequences represented by SEQ ID NOs: 1 to 5 | Absorbance at 700 nm (mAbs), colour development of DA-64 (hydrogen peroxide produced) (f-VHLT): 558 mAbs | enzyme activity with the peptide as a substrate (f-VHLT): the enzyme is effective on fructosyl valine and at least fructosyl peptides having amino acid sequences represented by SEQ ID NOs: 1 to 5 | Absorbance at 700 nm (mAbs), colour development of DA-64 (hydrogen peroxide produced) [2]: 735 mAbs | Michaelis constant (Km), Lineweaver-Burk's plots of enzyme activity (glucosone production) [2]: the Km value of the enzyme for fructosyl valyl histidine: 1.2 mM | absorbance at 550 nm (glucosone produced, glucose oxidase/peroxidase colour system) [2]: The absorbance was found to increase in accordance with the increase in concentration of fructosyl valyl histidine | enzyme activity with the peptide as a substrate [2]: the enzyme is effective on fructosyl valine and at least fructosyl peptides having amino acid sequences represented by SEQ ID NOs: 1 to 5
